From the DeepSol protein solubility set

Assay: soluble on expression in E. coli; label from the status in PepcDB or PDB records

Sequence	soluble on expression in E. coli
MKNRIIAAGVIAASILSYSSSSFAQTKTFPDVQTGHWAEDSINYLAEKGAVTGNEKGMFEPGKEITRAEAATMMAKILNLPIDKNAKPSYADSQKHWATPIIAAVEKAGVVKGTGNGFEPDGKIDRVSMASLLVEAYKLESKVNGTPATKFKDLETLNWGKEKANILVELGISVGTGDKWEPKKILTKAEAAQFIKKADSLKVGNPLVEKVVIIDPGHGGFDPGNPGQGVEESKIVFDTSLRLQKLLEKNTPLKALLTREENGNPGSNKNESLANRVKFGQENNADIFVSIHANSSEKHDGHGTETYYYKKSKRGEETQIEKDSEVLAKKIQNRVVEALHTRDRKIKDDHSLYVVNNNTVPAVLTELAFIDNDIDNGKLATESGRQIAAEAVYAGILDYYEWKGFDVSKYRLAK	not soluble
MGSDKIHHHHHHMPARPNHLSNNIVFRDGVQVMRMDLHVHTEVSHDCQTRLRDIPAWLLRTNTRVIAITDHDEQRGGPELKRLVADLGLADRLSIIPGEEITTSEGELIGLFLEERIPPGLTPEATVQEIKAQGGLVLLQHGFDPLKRYRLRPEATQRIADQIDMVETFNSRLSRHHWNRVAAEWARARHLPVCAGSDAHTLRDIGEAWVETPFRLIHTPEQLLQALDEGVVGGRWTHPVYAYGLKQWRNLNGRFQRKD	not soluble
MGSDKIHHHHHHMKAVRVHILGSGGREHAIGWAFAKQGYEVHFYPGNAGTKRDGTNHPYEGEKTLKAIPEEDIVIPGSEEFLVEGVSNWRSNVFGPVKEVARLEGSKVYAKRFMKKYGIRTARFEVAETPEELREKIKKFSPPYVIKADGLARGKGVLILDSKEETIEKGSKLIIGELIKGVKGPVVIDEFLAGNELSAMAVVNGRNFVILPFVRDYKRLMDGDRGPNTGGMGSWGPVEIPSDTIKKIEELFDKTLWGVEKEGYAYRGFLYLGLMLHDGDPYILEYNVRLGDPETEVIVTLNPEGFVNAVLEGYRGGKMEPVEPRGFAVDVVLAARGYPDAPEKGKEITLPEEGLIFFAGVAEKDGKLVTNGGRVLHCMGTGETKEEARRKAYELAEKVHFEGKTYRRDIAL	soluble
SSRVTYPLRKMREGAQDLAKGKFDTKIPILTQDEIGELATAFNQMGRQLNFHINALNQEKEQLSNILSSMADGVITINIDGTILVTNPPAERFLQAWYYEQNMNIKEGDNLPPEAKELFQNAVSTEKEQMIEMTLQGRSWVLLMSPLYAESHVRGAVAVLRDMTEERRLDKLREDFIANVSHELRTPISMLQGYSEAIVDDIASSEEDRKEIAQIIYDESLRMGRLVNDLLDLARMESGHTGLHYEKINVNEFLEKIIRKFSGVAKEKNIALDHDISLTEEEFMFDEDKMEQVFTNLIDNALRHTSAGGSVSISVHSVKDGLKIDIKDSGSGIPEEDLPFIFERFYKADKARTRGRAGTGLGLAIVKNIVEAHNGSITVHSRIDKGTTFSFYIPTKR	not soluble
MLMAATIPHIETITFTDWFLAIIDTPDIPIDEIEIRVAEGFKRKLTERQFQQLTELIHLISFIKHKKISNPTLALRIYVDENTSSLSRTALVEAVRMLPPEDNKTYELAAYLAQKNKLERYTNITKVPPLQIYQGDGVFEQYDEWILLFELFGLTQATPSDFIPAIAHLLITKNLGIPDLRALSKFMSTTHKLGILSQSFMNNMTPHLCNGQIIEKYESLLLKLQINDLLTEEILEVIYPLLNQPDALDAFFSLYHEEPSHDSALSFLREILPSFCAMSLPSKESYDDQVPTNTPLHLAVIESDKGNLERTLAFANRNLLIKCSYENTALLLACKLADKESARLILAKMQELGCDVNQRDHHGMTALHWANFYHFDELIRELEIAGADPQLKAANGKTCEYFYQHQFTLKDLKLNGKEIIDGEFKLSDCALTDIAFHMDKIALNLKLTTPSEIAELYARDEIAQIRSSNRFYLFFKLFRPKLINWLEKQNDLEPQVTYRFSGQSSSA	not soluble
IEIRSVVYQIEGQPYESRLVYDSSATALQPGLLMAPNWMGVSRGAEDIARAVAAKGYVVLLADLYGQQLRPSNNDEAGAAMTPLKNDRGLLRKRMQAGLDQLLSQADVSLDVSRIATFGFCFGGCCSLELARTGAELKAAISFHGTLDTPNPADASNIKGSVLVLHGASDPLVPKEQLPAFEEEMNAAGVDWQLHSHGGAFHSFTDPHANVPGMMMYDAKVSARAFKSMHDLLKEVFG	not soluble
MSLADPIKIGVIAEAQAIAGASIPQAAQLAAEEINAKGGIDGRKIEIVSYDNHSSSADSVRAFQRAVNEDKVNAVIASYISEVVLALMPWASRLKTPFVTPGAASNEITKAINKDYEKNKYTFHGYLTSGELAQSVCDAAKDLLVDARQMKSAVIMSEDAAWTKPLDVGYQECLPKVGLKVLDHIRFSPDTTDFTPIFNKIEGSKPDVIITGISHVGVQPTVQWKNQQVPIPMFGIASQATNETFGKDTNNASDGVLYQGVSGPGVAVTSKSVPFAENFKKKYGNYPSYAGYTAYDEVYYIAEAVKRAGSTDGEKLVEALEKTDYEGTIGRVQFYGKDEPFTHGLKYGKGLLTGLMLQWQDGKQVAVWPPEVAKAEGHHHHHH	soluble
MELLCHEVDPVRRAVRDRNLLRDDRVLQNLLTIEERYLPQCSYFKCVQKDIQPYMRRMVATWMLEVCEEQKCEEEVFPLAMNYLDRFLAGVPTPKSHLQLLGAVCMFLASKLKETSPLTAEKLCIYTDNSIKPQELLEWELVVLGKLKWNLAAVTPHDFIEHILRKLPQQREKLSLIRKHAQTFIALCATDFKFAMYPPSMIATGSVGAAICGLQQDEEVSSLTCDALTELLAKITNTDVDCLKACQEQIEAVLLNSLQQYRQDQRDGSKSEDELDQASTPTDVRDIDL	not soluble
MSLKGSEVITKFSKVDTIMFDKTGTLTYGDPRVSQVKKYGQGQLAEQLLVSVEKESAHPLAKAITGYYEDLEAEEVEASRVLQGGGIVAQVAGQQVLVGNRYLLDQYHVLVTKEMERDMEELASAGNSLVLVAVNGQLELALGLKDEIRAGVKEDLAALKKQGVKNLLLLSGDNQKTVDLVAEELGPTEAYGQLLPEDKAEFVKKRQAAGEIVAFVGDGINDSPSLARADIGIAMGSGTDVAIETSNVVLMNGSFDRIPRALALAKATRRNMIENEGHHHHHH	soluble
MGSDKIHHHHHHMYIRPFDPWKSKLCTCPFKYTLNPYTGCDHACVYCYITSYIPNAFKVRPKKNLLIQVERELRKFDKRYIIAMSYSSDPYPTIEKELGITRKVLELFRRYDVRCLILTKSDIFERDIDILKELRCAVGVTVTTIDERKAKLLEPNAPLPKDRIRALKKAKKEGIPVYARVDPIIPFYTWEDFRKTVDALSFVSHITVSTLKLRPDIKARMRAKFPELMKKLEPLYTERYEGYAYLRKDMRFRILNEARKIIEGKGITFGSCREGYYSYPTCDGSHLVP	not soluble
MAHHHHHHMMAHRCAFQTIASPALTQREVEFTKSAWIAGLRPDQRGAQQLREVNVDFPLLSRDVSCVRCGGTIVTAAIACELVEPFPCRPKHGIIDFSVRQPYTERDSSAKTAELKKLTAFLERLIKGGGVVDTEGLCVLPGRRVWSISVDVTVLNDEGNVTDVAVWATVAVLLHYRRPELTIRGDSVILHPTHERDPVPLSIHHTPLSFSFAITMAPGDRNKLARGRRDSQEALEVVVDPTFAEATAASSSVVVAVNAEGQVCSVSKSEGSCIHLNEVNHCMETASLLAPHILSLIRDAMAAHDKRRQEVLKRMFLWAQKRSGVTSEATEPEPAKKLKTET	not soluble
MGGSHHHHHHGMASALYAKGGKGSAVPSDSQAREKLALYVYEYLLHIGAQKSAQTFLSEIRWEKNITLGEPPGFLHSWWCVFWDLYCAAPDRREACEHSGEAKAFQDYSAAAAPSPVMGSMAPGDTMAAGSMAAGFFQGPPGSQPSPHNPNAPMMGPHGQPFMSPRFPGGPRPTLRMPSQPPAGLPGSQPLLPGAMEPSPRAQGHPSMGGPMQRVTPPRGMASVGPQSYGGGMRPPPNSLAGPGLPAMNMGPGVRGPWASPSGNSIPYSSSSPGSYTGPPGGGGPPGTPIMPSPGDSTNSSENMYTIMNPIGQGAGRANFPLGPGPEGPMAAMSAMEPHHVNGSLGSGDMDGLPKSSPGAVAGLSNAPGTPRDDGEMAAAGTFLHPFPSESYSPGMTMSV	not soluble
MGSDKIHHHHHHMAKAPKMAFVCDDCGLDYPRWQGQCRCGAWNSLVEMKLSASKSSTSRSSVLGYAGAVGGGSKKLSEVESEDAEKRLTEIGELDRVLSGGLTTGSVNIISGDPGAGKTTLLSDLVARMSQSMASLYCTAEESLSQFKNRVNRLKLNYNEDNLFLLSETSVEAIIEELEAKQIKFAVIDSIQAVVTDAANGSPGSPSQVKTAAQAFTQYCKKNNVTMFIIAHVNKNNEIAGPQTLVHIVDSLLHIDTNDGQIRTLRANKNRFGDVDTVGIFRMSERGMISVDNPSEIFLSGSTTESPGSTITCIRKGNRNLLLEIQCLTTETESEFPQRVCVGLNMNRIKMLTGILRKHTKTKIFHDTFFNIVGGLKIDESETCIDLALVTALLSSLNDFVVPRTTCIMGELSLNGDVRPIDSGVPRVKEAAQHGFTEIFIPFRNYHKTMEGLGAKIIPVKTIHELLELIN	not soluble
MMPNEKITLKQLIDHCFDTTKTTIKQQIVFGAGKIENKNFNIVGTVEDTSFGVDESIEMARCILDIIKNNNTDPIVLLTDVAGQKLAVRDEWLGMYAYFAHLLKCLHLARQNGNKIITLIYNQAIGGSFIAFGMMADRIYALKNAKLAVMWLEGMSKVTKIDIDVLRKISETSPVFAPGVENFKKLGGLHQVLDLDEVSQQLLLTLQEPNISHDNRAELGKQYGGRKEAYDIIKAIENL	not soluble
NKDMSFTVRGNYTFSQNIIDYYEENKLPYDYLSVTGKPFNILRGYIAEGLFSSKEEINTSADQSGFGRIRPGDIKYRDVNGDGIINDDDKVPLSYSNQLPRVMYGFGADFHWKDLTLSFLFKGSAKVDYYRSGLGNDAGWIPFYNGELGNVIKLANNPKNRWTPAWYSGTTATENPHAEFPRLSYGGNTNNSQLSSFWKRNGSFLRFQELSLKYNLKTPWIKKTGLSSVDLEFVANNLFTIDKVKYFDPEQASANGAAYPIPATYTFQVYLKF	not soluble
MSLRDISILLAEDESELRELLHEYLQLFFGRVYAATSGDQAYDIYKQKKPDIIITDISMPNLDGLEMISKIRESDKETKIIVMSAHSEQERLLLAIKLNLESYLIKPIKTEALKTILLDIVKHLREKSRRTYVTENIYWEHETNTLWGNSKEIKLRKMESMLLKLLFSRPNEIFSTKEIFDYLHETKNDKEFSVHAVTSLMKRLRAKLPNEVIHNIYGSGYKIIPIEGHHHHHH	soluble
AEQLRGEPWFHGKLSRREAEALLQLNGDFLVRESTTTPGQYVLTGSQSGQPKHLLLVDPEGVVRTKDHRFESVSHLISYHMDNHLPIISAGSELCLQQPVERKLLEH	soluble
SCIIFLKFDPRPASKNAYRLILAANRDEVYSRPSKAAEFWGSSSEILSGLDMEEGKEGGSWLGISKRGKLAALTNYLEARQNPDAQGRGFLVSNYLTDNLDSLAYLRKVSSEAHLYNGFNLLTAEFRANEDTLCYYGNKGSSEPIHLKAGIYGLSNSLLETPWRKLQHGKQLFSSVVSKTLPPDGLVQELLHILNNEELNTPDPAQESQGVGYSNAMLRALSAVCVRSPGYGTRTNTVILIDREGNVSFTERTMQNCDITQWSTNSFHFRLQE	soluble
MGSDKIHHHHHHVKQQRKEIQVLDRLNQAMEYIERHLDQRIEGAELAQIAATSEYHMRRLFSALAGMPLSEYIRRRRLTVAGAEVLAGDRTLLDIAVRYGYGSAEAFARAFRAMHGVGPGEARRTGAPLRSQPRMSFRLVVEGSTDMRYRIVEKDAFQVVGKKARVPLVYEGPNPAIVEFVRSIDPGTLQRLAELSDQEPRGVVAAVANIAGERVSAPEGTELDYYHGVVTSAPAPEDMAVLPVAAGLWAVFEVEGEAPYAIQYLWRDVFTQWFPANPYQSVPGPELLRTTMSQDGAYVEAELWVPVERVER	not soluble
